# Publication PMC6208296, “Redox regulation of pyruvate kinase M2 by cysteine oxidation and S-nitrosation” (Biochemical Journal, 2018)
# How the values were obtained:
# [1] = biological target: the molecule itself; assay: crystal structure; hanging drop vapour diffusion, 10 mg/ml protein with 5 mM of each ligand, PEG 3350, sodium cacodylate pH 6, 50 mM MgCl2, 100 mM KCl; 18°C (C424A, with F-1,6-BP, oxalate and ATP) or 4°C (C358S)
# [2] = biological target: the molecule itself; assay: cell-based or functional assay
# [3] = biological target: the molecule itself; assay: SEC; analytical gel filtration, Superdex 200 PC 3.2/30 in PBS-CM, room temperature; 0.1 mg/ml incubated 12 h (equilibrium) without or with 1 mM DTT or 20 μM H2O2; tetramer to monomers, peak areas on a bimodal distribution
protein,measurement,setting,value
"M2PYK C424A (enzyme, pyruvate kinase, M2 isoform (M2PYK), human, point mutant made on pET28a-M2PYK; Made by QuikChange on pET28a-M2PYK; no step that removes the His tag is described; source: E. coli BL21, purified (cobalt IMAC, Superdex 200 gel filtration)) not shown",binding result,[1],binds
M2PYK C326S (enzyme) not shown,"enzymatic activity, LDH-coupled assay, without F-1,6-BP, relative to M2PYK WT",[2],~20 % of WT activity
"M2PYK C358S (enzyme, pyruvate kinase, M2 isoform (M2PYK), human, point mutant made on pET28a-M2PYK; Made by QuikChange on pET28a-M2PYK; no step that removes the His tag is described; also called Cys358Ser; MPYK C358S; source: E. coli BL21, purified (cobalt IMAC, Superdex 200 gel filtration)) not shown",stoichiometry N,[3],4
